# Assay: Assay for conversion of compound (III) to compound (IV) by protein extracts, HPLC detection
# Assay type: biochemical, Streptomyces clavuligerus
# Conditions: recombinant orf3 protein from E. coli BL21(DE3)/pBLS3; ATP, Mg(AcO)2, MOPS pH 7.4; 37 °C, 15 minutes; underivatised and benzoin-derivatised HPLC
# Procedure: The crude extracts prepared from the recombinant E. coli containing the pBLS3vector (example 5) and the purified protein product (example 6) were tested for the ability to catalyse the conversion of the compound (III) to compound (IV). Both compound (III) and compound (IV) were prepared synthetically following previously published methods (Baldwin et al J. Chem Soc. Chem Comm. 1993 p500-2 and Elson et al J. Chem Soc. Chem Comm. 1993 p1212-4). Protein extracts were assayed for the conversion of compound (III) to compound (IV) under the following conditions: [table] The above mixture was heated at 37 ° C. for 15 minutes before being analysed by the HPLC methods described below. This assay was carried out using the following equipment and conditions • Waters 746 data module • Waters 600E system controller • Waters 712 WISP injector • Waters 848 tunable absorbance detector The protocol used was Kai et al. (M. Kai, T. Miyazaki, M. Yamaguchi, Y Ohkura, J. Chromatog. 268, 417-424, 1983) which assays for compounds containing guanidino functionalities using a fluorescence detector. […]
molecule,measurement,value
"orf3 product: polypeptide encoded by orf3 of the Streptomyces clavuligerus clavulanic acid gene cluster (SEQ ID NO:2), 56 KDa, β-lactam synthetase (protein, listed as Streptomyces clavuligerus) GAPVLPAAFGFLASARTGGGRAPGPVFATRGSHTDIDTPQGERSLAATLVHAPSVAPDRAVARSLTGAPTTAVLAGEIYNRDELLSVLPAGPAPEGDAELVLRLLERYDLHAFRLVNGRFATVVRTGDRVLLATDHAGSVPLYTCVAPGEVRASTEAKALAAHRDPKGFPLADARRVAGLTGVYQVPAGAVMDIDLGSGTAVTHRTWTPGLSRRILPEGEAVAAVRAALEKAVAQRVTPGDTPLVVLSGGIDSSGVAACAHRAAGELDTVSMGTDTSNEFREARAVVDHLRTRHREITIPTTELLAQLPYAVWASESVDPDIIEYLLPLTALYRALDGPERRILTGYGADIPLGGMHREDRLPALDTVLAHDMATFDGLNEMSPVLSTLAGHWTTHPYWDREVLDLLVSLEAGLKRRHGRDKWVLRAAMADALPAETVNRPKLGVHEGSGTTSSFSRLLLDHGVAEDRVHEAKRQVVRELFDLTVGGGRHPSEVDTDDVVRSVADRTARGAA",β-lactam synthetase activity: conversion of compound (III) to compound (IV),catalysis the conversion of compound (III) to compound (IV)

# — US6905849B1, “Process for preparing clavam derivatives by using polypeptides having β-lactam synthetase activity” (SmithKline Beecham plc, priority 1998, dated 2005)
